# According to PMC7578760 (iScience, 2020):
# B1: 14-3-3θ protein (natural protein)
# chain: EKTELIQKAKLAEQAERYDDMATCMKAVTEQGAELSNEERNLLSVAYKNVVGGRRSAWRVISSIEQKTDTSDKKLQLIKDYREKVESELRSICTTVLELLDKYLIANATNPESKVFYLKMKGDYFRYLAEVACGDDRKQTIDNSQGAYQEAFDISKKEMQPTHPIRLGLALNFSVFYYEILNNPELACTLAKTAFDEAIAELDTLNEDSYKDSTLIMQLLRDNLTLWTSDSAG
# Biological target: the molecule itself
# Assay: crystal structure
protein,measurement,value
B1,stoichiometry N,2
